Tests used:
[1] = molecular target: HLA-B*15:09; test: IEDB peptide-MHC binding, purified MHC/direct/fluorescence; filed as Kd, often an IC50 or EC50 that approximates it; ≥ and ≤ were set here for values at or beyond the usual limits of such assays
[2] = molecular target: HLA-B*39:01; test: as above; settings: source organism: Yersinia enterocolitica subsp. enterocolitica 8081
[3] = molecular target: HLA-C*03:03; test: as above
[4] = molecular target: HLA-B*15:17; test: IEDB peptide-MHC binding, purified MHC/competitive/fluorescence; filed as Kd, often an IC50 or EC50 that approximates it; ≥ and ≤ were set here for values at or beyond the usual limits of such assays; settings: source organism: Orthohantavirus sinnombreense
[5] = molecular target: HLA-A*26:01; test: as above; settings: source organism: Orthohantavirus sinnombreense
[6] = molecular target: HLA-B*57:01; test: IEDB peptide-MHC binding, purified MHC/direct/fluorescence; filed as Kd, often an IC50 or EC50 that approximates it; ≥ and ≤ were set here for values at or beyond the usual limits of such assays
[7] = molecular target: HLA-B*15:01; test: as above
[8] = molecular target: HLA-B*40:01; test: as above
[9] = molecular target: HLA-B*07:02; test: as above
[10] = molecular target: HLA-B*18:01; test: as above
[11] = molecular target: HLA-B*08:01; test: as above
[12] = molecular target: HLA-A*02:19; test: as above; settings: source organism: Limestone Canyon virus
[13] = molecular target: HLA-A*03:01; test: as above
[14] = molecular target: HLA-B*48:01; test: as above
[15] = molecular target: HLA-B*46:01; test: as above
[16] = molecular target: HLA-B*58:01; test: as above
[17] = molecular target: HLA-A*01:01; test: as above
[18] = molecular target: HLA-B*44:02; test: as above
[19] = molecular target: HLA-C*06:02; test: as above; settings: source organism: Orthohantavirus sinnombreense
[20] = molecular target: HLA-A*31:01; test: as above
[21] = molecular target: HLA-B*27:05; test: as above
[22] = molecular target: HLA-A*11:01; test: as above
[23] = molecular target: HLA-A*02:01; test: as above
[24] = molecular target: HLA-B*35:01; test: as above
[25] = molecular target: HLA-A*26:01; test: as above
[26] = molecular target: HLA-A*69:01; test: as above
[27] = molecular target: HLA-B*08:03; test: as above
[28] = molecular target: HLA-B*08:02; test: as above
[29] = molecular target: HLA-A*24:02; test: as above
[30] = molecular target: HLA-A*02:01; test: IEDB peptide-MHC binding, purified MHC/competitive/radioactivity; ≥ and ≤ were set here for values at or beyond the usual limits of such assays
[31] = molecular target: HLA-C*12:03; test: IEDB peptide-MHC binding, purified MHC/direct/fluorescence; filed as Kd, often an IC50 or EC50 that approximates it; ≥ and ≤ were set here for values at or beyond the usual limits of such assays
[32] = molecular target: HLA-B*53:01; test: IEDB peptide-MHC binding, purified MHC/competitive/fluorescence; ≥ and ≤ were set here for values at or beyond the usual limits of such assays; settings: source organism: Human herpesvirus 4 type 2
[33] = molecular target: HLA-A*24:02; test: IEDB peptide-MHC binding, purified MHC/competitive/radioactivity; filed as Kd, often an IC50 or EC50 that approximates it; ≥ and ≤ were set here for values at or beyond the usual limits of such assays; settings: source organism: Lassa virus Josiah
[34] = molecular target: HLA-A*29:02; test: as above; settings: source organism: Lassa virus Josiah
[35] = molecular target: HLA-A*23:01; test: as above; settings: source organism: Lassa virus Josiah
[36] = molecular target: HLA-C*15:02; test: IEDB peptide-MHC binding, purified MHC/direct/fluorescence; filed as Kd, often an IC50 or EC50 that approximates it; ≥ and ≤ were set here for values at or beyond the usual limits of such assays; settings: source organism: Mammarenavirus choriomeningitidis
[37] = molecular target: HLA-A*68:02; test: IEDB peptide-MHC binding, purified MHC/competitive/fluorescence; filed as Kd, often an IC50 or EC50 that approximates it; ≥ and ≤ were set here for values at or beyond the usual limits of such assays; settings: source organism: Salmonella enterica subsp. enterica serovar Typhi
[38] = molecular target: HLA-B*15:17; test: IEDB peptide-MHC binding, purified MHC/direct/fluorescence; filed as Kd, often an IC50 or EC50 that approximates it; ≥ and ≤ were set here for values at or beyond the usual limits of such assays; settings: source organism: Salmonella enterica
[39] = source organism: Orthohantavirus sinnombreense
[40] = source organism: Escherichia coli O157:H7
[41] = source organism: Escherichia coli O6
[42] = source organism: Listeria monocytogenes serotype 4b str. H7858
[43] = source organism: Influenza A virus (A/Wisconsin/4755/1994(H1N1))
[44] = source organism: Influenza A virus (A/Puerto Rico/8/34/Mount Sinai(H1N1))
[45] = source organism: Influenza A virus(A/swine/Henan/5/2004(H9N2))
[46] = source organism: Influenza A virus (A/Turkey/MO/24093/99(H1N2))
[47] = source organism: Hepatitis B virus
[48] = source organism: Mycobacterium tuberculosis variant bovis BCG str. Pasteur 1173P2
[49] = source organism: Vibrio cholerae RC385
[50] = source organism: Vibrio cholerae
[51] = source organism: Mammarenavirus lassaense
[52] = source organism: Salmonella enterica
[53] = source organism: Salmonella enterica subsp. enterica serovar Typhimurium str. LT2

FHYQDPFPL gave a Kd ([1]; source organism: Yersinia enterocolitica subsp. enterocolitica 8081) of at most 0.001 µM, a Kd [2] of at most 0.001 µM and a Kd ([3]; source organism: Yersinia pestis Nepal516) of 1.39 µM.
With FRYKSRCYV the Kd [4] was at least 20 µM, the Kd [5] was at least 20 µM and the Kd [6, 39] was at least 20 µM. It also gave a Kd [7, 39] of at least 20 µM, a Kd [8, 39] of at least 20 µM and a Kd [9, 39] of at least 20 µM. It also gave a Kd [10, 39] of at least 20 µM, a Kd [11, 39] of at least 20 µM and a Kd [12] of at least 20 µM. For the same sequence, the Kd [13, 39] was at least 20 µM, the Kd [14, 39] was at least 20 µM and the Kd [15, 39] was at least 20 µM. The Kd [16, 39] was at least 20 µM, the Kd [17, 39] was at least 20 µM and the Kd [18, 39] was at least 20 µM. For the same sequence, the Kd [19] was 0.007 µM.
AHGWSTFYL showed a Kd [7, 40] of at least 20 µM, a Kd [8, 40] of at least 20 µM and a Kd [9, 40] of at least 20 µM. For the same sequence, the Kd [11, 40] was at least 20 µM, the Kd [20, 40] was at least 20 µM and the Kd [13, 40] was at least 20 µM. For the same sequence, the Kd [21, 40] was at least 20 µM, the Kd [22, 40] was at least 20 µM and the Kd [23, 40] was at least 20 µM. The Kd [24, 41] was 2.1 µM, the Kd [16, 40] was at least 20 µM and the Kd [25, 40] was at least 20 µM. The Kd [17, 41] was 3.15 µM, the Kd [26, 41] was 1.54 µM and the Kd [18, 40] was at least 20 µM.
QMKRRILSF gave a Kd [11, 42] of 0.009 µM, a Kd [27, 42] of 0.095 µM and a Kd [28, 42] of 0.057 µM.
In the case of YRYTYRCHR, the Kd ([1]; source organism: Influenza A virus(A/swine/Shandong/fZC/2003(H9N2))) is reported as at least 20 µM, the Kd [7, 43] is reported as at least 20 µM and the Kd [8, 43] is reported as at least 20 µM. The Kd [9, 43] was at least 20 µM, the Kd [11, 43] was at least 20 µM and the Kd [29, 43] was at least 20 µM. The Kd [13, 43] was at least 20 µM, the Kd [21, 44] was 0.267 µM and the Kd [22, 43] was at least 20 µM. The Kd [23, 43] was at least 20 µM, the Kd [15, 43] was at least 20 µM and the Kd [16, 43] was 0.587 µM. It also gave a Kd [17, 43] of at least 20 µM, a Kd [26, 43] of at least 20 µM and a Kd [18, 43] of at least 20 µM.
Work on GMQIRGFVY yielded a Kd [1, 45] of at least 20 µM, a Kd [7, 44] of 0.26 µM and a Kd [8, 46] of at least 20 µM. The Kd [9, 46] was at least 20 µM, the Kd [11, 46] was at least 20 µM and the Kd [29, 46] was at least 20 µM. The Kd [13, 44] was 1.13 µM, the Kd [21, 46] was at least 20 µM and the Kd [23, 46] was at least 20 µM. It also gave a Kd [16, 46] of 4.75 µM, a Kd [25, 45] of at least 20 µM and a Kd [17, 46] of at least 20 µM. The Kd [26, 46] was at least 20 µM and the Kd [18, 46] was at least 20 µM.
Work on ILSTLPETTV yielded an IC50 [30, 47] of 0.233 µM.
Work on YVIEPAAGL yielded a Kd [31, 48] of 0.023 µM and a Kd [3, 48] of at most 0.001 µM.
QAYAAPQLF was tested, and the IC50 [32] was 0.0707 µM.
Sequence GLRWHVRAF has a Kd [1, 49] of at least 20 µM, a Kd [7, 50] of 0.0794 µM and a Kd [8, 50] of at least 20 µM. The Kd [9, 50] was 0.407 µM, the Kd [20, 50] was at least 20 µM and the Kd [29, 50] was at least 20 µM. The Kd [13, 50] was at least 20 µM, the Kd [21, 50] was at least 20 µM and the Kd [22, 50] was at least 20 µM. It also gave a Kd [23, 50] of at least 20 µM, a Kd [16, 50] of at least 20 µM and a Kd [25, 49] of at least 20 µM. The Kd [17, 50] was at least 20 µM, the Kd [26, 50] was at least 20 µM and the Kd [18, 50] was at least 20 µM.
Sequence FPFWGCFVS has a Kd ([24]; source organism: Rickettsia prowazekii) of 0.002 µM.
FLPNDFFPSA was tested, and the IC50 [30, 47] was 0.0021 µM.
YLISIFLHL gave a Kd [33] of at least 67.7 µM, a Kd [34] of 0.0997 µM and a Kd [35] of 0.000422 µM. For the same sequence, the Kd [36] was at least 20 µM, the Kd [23, 51] was 0.0809 µM and the Kd [26, 51] was 0.802 µM.
Sequence QLLWFHISCL has an IC50 [30, 47] of 0.393 µM.
Work on VATVNAVTV yielded a Kd ([31]; source organism: Leishmania major strain Friedlin) of 0.018 µM.
RVASPTSGV gave an IC50 ([30]; source organism: Homo sapiens) of 0.731 µM.
With NVHRSQFAQ the Kd [37] was at least 20 µM, the Kd [6, 52] was at least 20 µM and the Kd [7, 52] was at least 20 µM. It also gave a Kd [8, 52] of at least 20 µM, a Kd [9, 52] of at least 20 µM and a Kd [10, 52] of at least 20 µM. The Kd [38] was at least 20 µM, the Kd [11, 53] was at least 20 µM and the Kd [20, 52] was at least 20 µM. For the same sequence, the Kd [13, 52] was at least 20 µM, the Kd [21, 52] was at least 20 µM and the Kd [22, 52] was at least 20 µM. For the same sequence, the Kd [14, 52] was at least 20 µM, the Kd [23, 52] was at least 20 µM and the Kd [27, 53] was at least 20 µM. It also gave a Kd [15, 52] of at least 20 µM, a Kd [16, 52] of at least 20 µM and a Kd [17, 52] of at least 20 µM. The Kd [28, 53] was at least 20 µM.

Reference: the Immune Epitope Database (IEDB)
